Data reported in paper PMC9998937.

Biological target: T1, ArcR (Staphylococcus aureus NCTC8325) (UniProt Q2FUY1)
T1 sequence: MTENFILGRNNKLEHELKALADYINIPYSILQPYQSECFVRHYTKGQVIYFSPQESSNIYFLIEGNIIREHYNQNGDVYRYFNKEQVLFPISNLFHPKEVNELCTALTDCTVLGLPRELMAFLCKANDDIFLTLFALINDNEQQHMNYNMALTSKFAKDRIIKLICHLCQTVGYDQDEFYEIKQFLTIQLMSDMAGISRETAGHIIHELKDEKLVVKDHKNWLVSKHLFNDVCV
Test: EMSA

Row | Sequence | binding
1 | ACACCAGTTAACTTTTTGTCTTGTTGTGACATAGTCATCCCTCCACAATTTATAATAATTATAATTTAATACATATTATAATTTAACCCCATCAAAATTACAATTAAACATGCTCAAGATGATTAAAAAATCAGAAAATTTTAATTTTTTCGCTTTACAGTACTAAATAGTTATTGAATAGTACACTTAAAAAGCTTACAATAATGGGTATATTTAAATAGATGGGAGACTAAATATGGAAGAT (double strand) [katA promoter region] | binds
2 | AGCGCGTGTTGTTATGTCGCGAATGGTAATCTTTTCTAAATCTTTTTCTTGTAGTAATTTAGTGAACGCTTGTTTAATGGAGGACTTTGTCTTTCTAATTCGCCTATCTTCTTTCAAAAATAAATCAACCTCCTTGTGTTATTGAACAATGTGGGTGTATTTGTCTATTAATGAACGTATTGATGAACATTGTGTATTGTTTATTCCCACTTACATATTATAATAGACAACATGCGAAATATTCAACACATTGTCTAATAAGGAGGT (double strand) [tetA promoter region] | no binding
